The sequences below were run against Int-His6 (bacteriophage lambda integrase, with IHF; BP Clonase) (Bacteriophage lambda) (UniProt P03700+P0A6X7+P0A6Y1) (assay: cell_activity). Conditions: degenerate pool vs attB1-LacZa-attB2, overnight.
Chain of UniProt P03700 (P03700 whole entry, chain 1 of 3): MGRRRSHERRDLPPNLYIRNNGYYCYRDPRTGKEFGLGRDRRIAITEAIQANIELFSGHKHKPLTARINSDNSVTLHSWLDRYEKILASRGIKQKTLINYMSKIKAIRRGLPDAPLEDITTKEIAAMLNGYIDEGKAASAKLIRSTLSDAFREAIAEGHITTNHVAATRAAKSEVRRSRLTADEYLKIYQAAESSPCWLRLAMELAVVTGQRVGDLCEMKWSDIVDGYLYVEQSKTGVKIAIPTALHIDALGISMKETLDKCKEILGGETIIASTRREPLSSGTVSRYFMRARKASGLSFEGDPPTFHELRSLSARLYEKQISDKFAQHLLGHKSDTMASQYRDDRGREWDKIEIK
Chain of UniProt P03700 (P0A6X7 2-99, chain 2 of 3): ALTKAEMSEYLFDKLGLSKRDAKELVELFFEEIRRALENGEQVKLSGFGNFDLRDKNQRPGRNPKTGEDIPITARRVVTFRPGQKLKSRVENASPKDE
Chain of UniProt P03700 (P0A6Y1 whole entry, chain 3 of 3): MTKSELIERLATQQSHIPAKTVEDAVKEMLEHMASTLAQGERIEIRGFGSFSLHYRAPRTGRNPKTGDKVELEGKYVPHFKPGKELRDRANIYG
With “GGGGACAAGTTTGTACAAAAAAGCNNNNN (double strand) [attB1n21-25]” the binding signal was 14%. “GGGGACAAGTTTGTACAAANNNNNAGGCT (double strand) [attB1n16-20]” was tested, and the binding signal was 1.5%. “GGGGACCACTTTGTACAAGAAAGCNNNNN (double strand) [attB2n21-25]” showed a binding signal of 21%. In the case of “GGGGACCACTTTGTACAAGNNNNNTGGGT (double strand) [attB2n16-20]”, the binding signal is reported as 0.9%.
